Substrate in this series: CC/C(=C(\c1ccc(O)cc1)c1ccc(OCCN(C)C)cc1)c1ccccc1
Nature of the series: Initial rate kinetics of TAM sulfation. Type of series: biochemical, human. Particulars: other: TAM as substrate, pH 7.2, 25.0 °C.

As usually defined, the kcat is the maximal rate divided by the concentration of active sites.

B1: SULT1A1 (Homo sapiens) (protein)
chain: MELIQDTSRPPLEYVKGVPLIKYFAEALGPLQSFQARPDDLLISTYPKSGTTWVSQILDMIYQGGDLEKCHRAPIFMRVPFLEFKAPGIPSGMETLKDTPAPRLLKTHLPLALLPQTLLDQKVKVVYVARNAKDVAVSYYHFYHMAKVHPEPGTWDSFLEKFMVGEVSYGSWYQHVQEWWELSRTHPVLYLFYEDMKENPKREIQKILEFVGRSLPEETVDFVVQHTSFKEMKKNPMTNYTTVPQEFMDHSISPFMRKGMAGDWKTTFTVAQNERFDADYAEKMAGCSLSFRSEL
For B1, under “E·(PAP)2 form, [PAPS] 250 μM”, the kcat stood at 11 s⁻¹. Besides, where the note is “E·PAP form, [PAPS] 4.0 μM”, the Km is listed as 14 (1.0) μM and the kcat worked out at 2 s⁻¹.

For the origin of these results see PMC4230322.
